We go through one protein from article PMC12403594, “On the self-assembly of αB-crystallin” (Soft Matter, 2025).

Data set [1] concerns the molecule itself. The data set can be described thus: static light scattering; day 0 (day of thawing and dilution); 10-69 μM αBC; 20 mM sodium phosphate, 0.2 mM EDTA, 0.02% NaN3, pH 8.0; 25 °C; aggregation number from the slope of the excess Rayleigh ratio at q = 0 against concentration.
Data set [2] deals with the molecule itself. The experiment in a line: static light scattering; day 7 after sample preparation; 10-69 μM αBC; 20 mM sodium phosphate, 0.2 mM EDTA, 0.02% NaN3, pH 8.0; 25 °C; aggregation number from the slope of the excess Rayleigh ratio at q = 0 against concentration.

B1: Recombinant human αB-crystallin (natural protein)
chain: MDIAIHHPWIRRPFFPFHSPSRLFDQFFGEHLLESDLFPTSTSLSPFYLRPPSFLRAPSWFDTGLSEMRLEKDRFSVNLDVKHFSPEELKVKVLGDVIEVHGKHEERQDEHGFISREFHRKYRIPADVDPLTITSSLSSDGVLTVNGPRKQVSGPERTIPITREEKPAVTAAPKK
notes: αB-crystallin, human; expressed from a synthetic gene with E. coli-optimized codons in a Pet3a vector; No tag is mentioned; The introduction gives 175 residues for the protein
On to B1, for which the “stoichiometry N” value in data set [1] worked out at 24; in data set [2] it was 19.

Broadly, the stoichiometry N is a count of units in the complex or per binding partner.
